These results are taken from patent publication US20250034594A1, “RNA-GUIDED GENOME RECOMBINEERING AT KILOBASE SCALE” (THE BOARD OF TRUSTEES OF THE LELAND STANFORD JUNIOR …, priority 2021, published 2025).

Common to all, as to format: cell-based
In one test the test system is gene editing with Cas9. Put plainly: Screen of 322 new SSAP proteins, gene editing activity with Cas9 (Table 5). Also noted: Cas9 with SSAP activity: scale not given here. A digest of the protocol: (§1)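 Synthetic SSAP candidates, identified computationally, were tested in editing screens using both Cas9 and dCas9.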
A further test deals with gene editing with dCas9. Put plainly: Screen of 322 new SSAP proteins, gene editing activity with dCas9 (Table 5). On the set-up: dCas9 with SSAP activity: scale not given here. Summed up: as §1
Test [1] relates to gene editing with Cas9 and dCas9. The experiment in a line: Screen of 322 new SSAP proteins, activity across all experiments (Cas9 and dCas9, Table 5). On the set-up: scale not given here. A digest of the protocol: as §1

B1: SSAP_19: SEQ ID NO: 188 (protein)
chain: NTPTMKRKFEEVLHENANAFMSNVMTLVSNDSYLAESEPMSILSGALTAATLNLGLDKNLGYAYLVPFNTKNKQTGKWERKAQFILGYKGYIQLAQRSGKYKALNVIEVYEGELLSWNRLTEEFEFDPNGRQSDDVIGYVGYFELLNGFKKTVYWTKQEIEAHRIANSKDKEKTKLSGVWATDYNAMARKTVLRNMLSKWGILSIEMQEATTSDEKVQQMQEDGNIISETEVEENTTMKTAEVINEADSDSLNQTDLFDTKNPPLE
With B1, in the test with gene editing with Cas9, the “Cas9 with SSAP activity” value is −0.298 and the “Cas9 with SSAP activity (normalized)” value is −0.329. Besides, in the test with gene editing with dCas9, the “dCas9 with SSAP activity” value is −1.396 and the “dCas9 with SSAP activity (normalized)” value is on record as −0.389. Also, in test [1], the “Activity across all experiments” value is −0.847.

B2: SSAP_302: SEQ ID NO: 471; Clostridium saccharobutylicum (protein, listed as Clostridium saccharobutylicum)
chain: ATNSSLKNQLIEKEQTTVNVQETMFKNLINSDDVKSKFTEVLKDKAIQYINSIINLVNSDKDLIECEPKSIIDACMSAVSLDLSVDKNLEYVEIIPYKKKANFQLGYRGYIQLLLRTGEYKSVNIIEVYEGQLKSWNQLAEEFDIDFTYKKSDAVIGYAGYFEMLNGFRKSVYWSKENMDALRENSFKSDTRWNNDYKAMAKRAVIRNMISKWGSLSIEMEKAYCEDLNTDKFVNGN
For the molecule B2, in the test with gene editing with Cas9, the “Cas9 with SSAP activity” value is −0.842 and the “Cas9 with SSAP activity (normalized)” value is reported as −0.289. In the test on gene editing with dCas9, the “dCas9 with SSAP activity” value is −1.946 and the “dCas9 with SSAP activity (normalized)” value is listed as −0.772. Also, the “Activity across all experiments” value in test [1] is listed as −1.394.

B3: SSAP_135: SEQ ID NO: 304; Amycolatopsis arida (protein, listed as Amycolatopsis arida)
chain: HGTALNPERFTRVALTVIRQSADLQRCRPESLLGALMTSAQLGLEPGPLGEAYLVPYGDQVTFIPGYRGLIKLAWQSGQLRHISARVVHEGDRFSYSYGLHPDLIHQPTRGDRGPITDVYAAATLIDGGVEFEVLDVATVETIRARSRAGRKGPWVTDWEAMARKTAIRQLAKWLPMATVMSRAIAAEGTVRTDLDADALDDLTADPGPEVLDADPAWDGPEPPGDQARNQEPTTQGDA
With B3, in the test on gene editing with Cas9, the “Cas9 with SSAP activity” value is listed as −1.283 and the “Cas9 with SSAP activity (normalized)” value is given as −0.722. Besides, in the test with gene editing with dCas9, the “dCas9 with SSAP activity” value is −1.826 and the “dCas9 with SSAP activity (normalized)” value was −2.544. Further, in test [1], the “Activity across all experiments” value is −1.554.

B4: SSAP_75: SEQ ID NO: 244 (protein)
chain: ANELGIFSVDNLNMTTIKQYLDGGGKASDAELVLLINLCKQNNMNPFMKEVYFIKYGNQPAQIVVSRDFYRKRAFQNPNFAGIEVGVIVLNKDGVLEHNEGTFKTHEQELVGAWARVHLKNTEIPVYVAVSYDEYVQMKDGHPNKMWTNKPCTMLGKVAESQALRMAFPAEFSGTYGEEELPEPEKEPREVNGVKEPDRAQIESFDKEDYAAKKIEELKEKAQPQKEVVKETGEVIDKITAEDF
Consider B4, for which, in the test on gene editing with Cas9, the “Cas9 with SSAP activity” value came to 0.284 and the “Cas9 with SSAP activity (normalized)” value came out at 0.225. In the test with gene editing with dCas9, the “dCas9 with SSAP activity” value was −1.658 and the “dCas9 with SSAP activity (normalized)” value is listed as −0.897. In addition, the “Activity across all experiments” value in test [1] is reported as −0.687.

B5: SSAP_153: SEQ ID NO: 322; Staphylococcus intermedius (protein, listed as Staphylococcus intermedius)
chain: ANANSFKEQVSKNEVQETNNEKPKGPRQQVSDLLERMAPEIQKALPSHMSAERMARIAMTAISSNPQLLECNPRSLIGALLQASQIGLEPNTALGQAYLIPYYNHKKKEFEAQLQLSYLGLIELATRTGQYKAIYAHEVYKEDEFYYEYGLHKNLVHKPVDDPNGEPVGYYAVYHLQNGGFDFAYWTKNKIELHAGNYSKAVQKGWNSPWKTDFNAMAKKTVLKDLLKYAPKSIEISQAVGSDSKVTEINKQGEIIDITEYGQEALEG
In the case of B5, in the test with gene editing with Cas9, the “Cas9 with SSAP activity” value is given as −2.201 and the “Cas9 with SSAP activity (normalized)” value was −0.296. In the test on gene editing with dCas9, the “dCas9 with SSAP activity” value is given as −1.534 and the “dCas9 with SSAP activity (normalized)” value is listed as −0.179. Moreover, in test [1], the “Activity across all experiments” value is listed as −1.867.

B6: SSAP_143: SEQ ID NO: 312; Staphylococcus chromogenes (protein)
chain: ANAKEFKKQMNSKNEVAETNNAPQKAKGPRQQVSDLLDRMAPEIQKALPNNMSAERMARIAMTAVSSNPKLLECDPKSFIGALMQASQIGLEPNTALGQAYLIPYGNQVQLQLSYLGLIELATRTGQYKAIYAHEVYKDDEFSYEYGLYKNLIHKPVDDPNGEPIGYYAVYHLMNGGYDFAYWTRKKVEAHAQQYSKAVQQGWNSPWKSDFNAMAKKTVLKDLLKYAPKAIEVSQAIGSDSKVSEINDEGEIIDVTDYSQEEEK
modifications: Staphylococcus chromogenes
Consider B6, for which, in the test on gene editing with Cas9, the “Cas9 with SSAP activity” value was −0.553 and the “Cas9 with SSAP activity (normalized)” value is listed as −1.314. Further, in the test on gene editing with dCas9, the “dCas9 with SSAP activity” value is given as −1.842 and the “dCas9 with SSAP activity (normalized)” value is −1.900. Moreover, the “Activity across all experiments” value in test [1] was −1.198.

B7: SSAP_93: SEQ ID NO: 262; Morganella morganii (protein, listed as Morganella morganii)
chain: SNPPIAQADLQKAQGTAVKEKTKDQQLIQFINQPGMKAQLAAALPRHITPDRMIRIVTTEIRKTPSLATCDMQSFIGAVVQCSQLGLEPGNALGHAYLLPFGNGKAASGQSNVQLIIGYRGMIDLARRSGQIISISARTVREGDSFHFEYGLNEDLTHVPGENDSGPITHVYAVARLKEGGVQFEVMSFSQIEKVRDSSKAGKNGPWVSHWEEMAKKTVIRRLFKYLPVSIEMQRAVILDEKAEANVDQEHASIFEGEYETVSPE
In the case of B7, in the test on gene editing with Cas9, the “Cas9 with SSAP activity” value is on record as 0.714 and the “Cas9 with SSAP activity (normalized)” value is reported as 1.299. In addition, in the test with gene editing with dCas9, the “dCas9 with SSAP activity” value is reported as −2.015 and the “dCas9 with SSAP activity (normalized)” value is recorded as −0.557. The “Activity across all experiments” value in test [1] is −0.650.

B8: SSAP_296: SEQ ID NO: 465; Peptostreptococcaceae bacterium VA2 (protein)
chain: QPFLVQRYPHLDVVLNDQVHVLKSFFFQNHIILYLYKYIECLQIFHKPLLKGDRGKVIGYYAVYHLEPNGYNFVFMTYDEVKNHGKKYSKNFEGGIWEKEFDSMAKKTVIKKLLKYAPLSIEMQKAVTFDESVKGSIDNDMLLVESIEDVEEIQLDTNI
modifications: Peptostreptococcaceae bacterium VA2
B8: in the test with gene editing with Cas9, the “Cas9 with SSAP activity” value is 0.244 and the “Cas9 with SSAP activity (normalized)” value came to 0.617. In addition, in the test with gene editing with dCas9, the “dCas9 with SSAP activity” value is given as −1.749 and the “dCas9 with SSAP activity (normalized)” value is reported as −0.598. The “Activity across all experiments” value in test [1] is on record as −0.753.

B9: SSAP_111: SEQ ID NO: 280; Siminovitchia fordii (protein, listed as Siminovitchia fordii)
chain: ATNQDIKNQLANKANGNKPASPANTIAAYLKKMGPEIEKALPKHMDADRLARIALTTIRTTPKLLECNISSLMGAVMQSAQLGLEPGLIGHCYIIPYGKEATFIIGYKGMIDLARRSGQIQNIYAHAVFENDEFDYALGLHPKLEHKPAGSNRGEIIGAYAVAHFKDGGYQFEYMAKEDIEKRKSRSAAARSKHSPWATDYEEMAKKTVIRHMWKYLPISVEIQQQAIQDEVVRKDVTSEPEFIDMEDMPEVEEGQSEESEQVEAPFD
B9: in the test with gene editing with Cas9, the “Cas9 with SSAP activity” value is recorded as 0.173 and the “Cas9 with SSAP activity (normalized)” value worked out at 0.129. Further, in the test on gene editing with dCas9, the “dCas9 with SSAP activity” value is −1.417 and the “dCas9 with SSAP activity (normalized)” value is recorded as −0.419. Moreover, the “Activity across all experiments” value in test [1] is on record as −0.622.

B10: SSAP_92: SEQ ID NO: 261; Edwardsiella piscicida (protein, listed as Edwardsiella piscicida)
chain: TNNQQPPIATADLQKAQSQAPAVKPDQKLINFINQPSMKGQIAAALPRHMAPDRMIRIITTEIRKTPALATCDMQSFIGSVVQCSQLGLEPGGALGHAYLLPFGNGKAKSGQSNVQLIIGYRGMIDLARRSGQIVSISARTVRDGDQFHYEYGLDETLKHVPGDNESSPITHVYAVAKLKDGGVQFEVMTFNQIEKVRGQSKAGNNGPWQTHWEEMAKKTVIRRLFKYLPVSIEMQKAVILDEKAEANIDQENASVISAEFSVVED
With B10, in the test with gene editing with Cas9, the “Cas9 with SSAP activity” value was 2.341 and the “Cas9 with SSAP activity (normalized)” value came out at 2.795. In the test on gene editing with dCas9, the “dCas9 with SSAP activity” value is −1.516 and the “dCas9 with SSAP activity (normalized)” value was −0.177. Moreover, the “Activity across all experiments” value in test [1] was 0.412.

B11: SSAP_295: SEQ ID NO: 464; Pseudoalteromonas (multispecies) (protein, listed as Pseudoalteromonas sp.)
chain: SLSLQEYQNLLYGKLTACKGQFDACLSENGYKLDFNTELNYVYQIVMSGLNVEYSFPYTPVESVITSFLKAAKIGLSLCPTEQLCFLKTEYSESSGQYVTQLGLGYKGILKLAYRSGKVKQINANVFYEKDNFQYNGVNSKVTHTTTVLSKAMRGQLAGGYCQTELIDGSFKTTVMPPEEILAIEEQGKAMGNEAWLSVHVDQMREKTLIKRHWKTLCPCIYRDSVMNDPMLFDDQDCQHSSNQQAYEEQFESAYSREAY
As for B11, in the test with gene editing with Cas9, the “Cas9 with SSAP activity” value is −2.337 and the “Cas9 with SSAP activity (normalized)” value is −0.343. In addition, in the test on gene editing with dCas9, the “dCas9 with SSAP activity” value is listed as −2.038 and the “dCas9 with SSAP activity (normalized)” value is −0.267. In addition, the “Activity across all experiments” value in test [1] is reported as −2.188.

B12: SSAP_223: SEQ ID NO: 392; Haloactinospora alba (protein, listed as Haloactinospora alba)
chain: GQSVTNAVAQRDTSPSGMVGKYRDDFAQVMPSHVNGAGWVRIAQGILRRDAKLAEAARNAPQSLMSALMDAAQQGLTPGTTEFYLVPRKRKGSLEVQGITGYQGEIELIYRAGAVASVVAEIVHEHDTFEWIPGKHERPIHEADWFGNRGTMVGAYAYAVMNSGSTSKVVILNQHDIEKARAMSDGADSSYSPWQKWPESMWLKTAAHRLAKWVPTSAEYRHEQERARARSEDTEIPASPDSDVVHAEIVEENDDEQAT
B12: in the test on gene editing with Cas9, the “Cas9 with SSAP activity” value is recorded as 0.236 and the “Cas9 with SSAP activity (normalized)” value is 0.173. In the test with gene editing with dCas9, the “dCas9 with SSAP activity” value was −1.928 and the “dCas9 with SSAP activity (normalized)” value was −0.948. The “Activity across all experiments” value in test [1] is reported as −0.846.
